Experimental data: patent US20150274826A1 (ARCH ONCOLOGY, published 2015)
Substitutions are numbered along the chain they refer to.

B1: chimeric antibody VxP037-01LC-Pro/VxP037-01HC-Pro (antibody, human IgG1, kappa, V domains shown)
VH: EVQLQQFGAELVKPGASMKLSCKASGYTFTNYYVFWVKQRPGQGLEWIGDINPVNGDTNFNEKFKNKATLTVDKSSTTTYLQLSSLTSEDSAVYYCTRGGYTMDYWGQGTLVTVSS
VL: DVVMTQTPLSLSVSLGDQASISCRSSQSLVHSNGNTYLHWYLQKPGQSPKLLIYKVSYRFSGVPDRFSGSGSGTDFTLKISRVEAEDLGVYFCSQNTHVPRTFGQGTKVEIKR
notes: also called Chimera; VxP037-01LC/VxP037-01HC
B2: Clone 14 (pVxK7b-037-hum14-LC / pVxK7b-037-hum14-HC) (antibody, human IgG1, kappa)
heavy: not shown
light: DVVMTQSPLSLPVTLGQPASISCRSSQSLVHSNGNTYLHWYQQKPGKAPKLLIYKVSYRFSGVPDRFSGSGSGTDFTLKISRVEAEDVGVYYCSQNTHVPRTFGQGTKVEIKRTVAAPSVFIFPPSDEQLKSGTASVVCLLNNFYPREAKVQWKVDNALQSGNSQESVTEQDSKDSTYSLSSTLTLSKADYEKHKVYACEVTHQGLSSPVTKSFNRGEC
B3: Clone 23 (pVxK7b-037-hum23-LC / pVxK7b-037-hum23-HC) (antibody, human IgG1, kappa)
heavy: not shown
light: B2 light with V2I, S7T, L15P, Q17E
B4: Clone 19 (pVxK7b-037-hum19-LC / pVxK7b-037-hum19-HC) (antibody, human IgG1, kappa)
heavy: not shown
light: B2 light
B5: Clone 20 (pVxK7b-037-hum20-LC / pVxK7b-037-hum20-HC) (antibody, human IgG1, kappa)
heavy: not shown
light: B2 light with V2I, S7T, L15P, Q17E, Q42L, K47Q, A48S, K50Q
B6: Clone 10 (pVxK7b-037-hum10-LC / pVxK7b-037-hum10-HC) (antibody, human IgG1, kappa, V domains shown)
VH: QVQLQESGPGLVKPSQTLSLTCTVSGYTFTNYYVFWVRQARGQRLEWIGDINPVNGDTNFNEKFKNRLTISKDTSKNQVVLTMTNMDPVDTATYYCARGGYTMDYWGQGTLVTVSS
VL: B1 VL with V2I, S12P, S14T, L15P, D17E, Q18P, K50Q, L88V, F92Y
B7: Clone 3 (pVxK7b-037-hum03-LC / pVxK7b-037-hum03-HC) (antibody, human IgG1, kappa)
heavy: not shown
light: B2 light
B8: Clone 9 (pVxK7b-037-hum09-LC / pVxK7b-037-hum09-HC) (antibody, human IgG1, kappa)
heavy: not shown
light: B2 light
notes: also called Cl 9
B9: Clone 2 (pVxK7b-037-hum02-LC / pVxK7b-037-hum02-HC) (antibody, human IgG1, kappa, V domains shown)
VH: QVQLQESGPGLVKPSQTLSLTCTVSGYTFTNYYVFWVRQARGQRLEWIGDINPVNGDTNFNEKFKNRVTISADKSISTAYLQWSSLKASDTAMYYCARGGYTMDYWGQGTLVTVSS
VL: DVVMTQSPLSLPVTLGQPASISCRSSQSLVHSNGNTYLHWYQQKPGQAPRLLIYKVSYRFSGVPSRFSGSGSGTEFTLTISSLQPDDFATYYCSQNTHVPRTFGQGTKVEIKR
B10: Clone 15 (pVxK7b-037-hum15-LC / pVxK7b-037-hum15-HC) (antibody, human IgG1, kappa, V domains shown)
VH: B6 VH
VL: AIQLTQSPSSLSASVGDRVTITCRSSQSLVHSNGNTYLHWYQQKPGQAPRLLIYKVSYRFSGVPSRFSGSGSGTEFTLTISSLQPDDFATYYCSQNTHVPRTFGQGTKVEIKR
B11: Clone 22 (pVxK7b-037-hum22-LC / pVxK7b-037-hum22-HC) (antibody, human IgG1, kappa, V domains shown)
VH: B6 VH
VL: EIVLTQSPATLSVSPGERATLSCRSSQSLVHSNGNTYLHWYQQKPGQAPRLLIYKVSYRFSGVPSRFSGSGSGTDFTFTISSLEAEDAATYYCSQNTHVPRTFGQGTKVEIKR
B12: Clone 6 (pVxK7b-037-hum06-LC / pVxK7b-037-hum06-HC) (antibody, human IgG1, kappa, V domains shown)
VH: B6 VH
VL: B10 VL with A1D, L4M, Q42L, A48S, R50Q, V63I, S65A, P85S, D86E, T90V
B13: Clone 21 (pVxK7b-037-hum21-LC / pVxK7b-037-hum21-HC) (antibody, human IgG1, kappa, V domains shown)
VH: B6 VH
VL: AIQLTQSPSSLSASVGDRVTITCRSSQSLVHSNGNTYLHWYQQKPGQAPRLLIYKVSYRFSGVPDRFSGSGSGTDFTLKISRVEAEDVGVYYCSQNTHVPRTFGQGTKVEIKR

molecular target: T1, rat CD47 (rat, UniProt P97829 19-303); experiment: flow cytometry on RBCs, CHO supernatant 10 ng/ml
T1 construct: whole, on cells; also called CD47 on rat RBCs
T1 sequence (looked up): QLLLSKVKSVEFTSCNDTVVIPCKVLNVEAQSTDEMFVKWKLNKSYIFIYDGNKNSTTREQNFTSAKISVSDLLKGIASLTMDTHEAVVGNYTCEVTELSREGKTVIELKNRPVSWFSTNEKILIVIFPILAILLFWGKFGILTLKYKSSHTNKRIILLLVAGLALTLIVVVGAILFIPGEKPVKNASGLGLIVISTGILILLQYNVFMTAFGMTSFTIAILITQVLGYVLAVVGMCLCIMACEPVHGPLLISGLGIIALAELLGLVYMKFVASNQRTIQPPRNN
Description: (§1) RBCs are incubated for 60 minutes on ice with tissue culture supernatants containing the secreted humanized antibodies at a concentration of 10 ng/ml in a solution of phosphate buffered saline, pH 7.2, 2.5 mM EDTA (PBS+E), or with various concentrations of purified antibodies. Cells are then washed with cold PBS+E, and incubated for an additional hour on ice with FITC labeled donkey anti-human antibody (Jackson Immuno Research Labs, West Grove, Pa.; Catalogue #709-096-149) in PBS+E. Cells are then washed with PBS+E, and antibody binding is analyzed using a BD FACSAria Cell Sorter (Becton Dickinson) or a C6 Accuri Flow Cytometer (Becton Dickinson). Antibody binding is quantitated by comparison of mean fluorescence values relative to that of chimeric antibody >VxP037-01LC (SEQ ID NO:7))/>VxPO37-01HC (SEQ ID NO:57). The mean fluorescence value for each antibody is divided by the mean fluorescence value for the chimeric antibody.

Compared with B1, B2 is higher in “mean fluorescence relative to chimeric antibody” value: 1 ratio for the first, 3.2 ratio for the second.

Going from B3 to B4, the “mean fluorescence relative to chimeric antibody” value falls from 3.3 ratio to 2.6 ratio.

Compared with B5, B6 is higher in “mean fluorescence relative to chimeric antibody” value: 1.9 ratio for the first, 2.9 ratio for the second.

Compared with B7, B8 is higher in “mean fluorescence relative to chimeric antibody” value: 1.7 ratio for the first, 3.7 ratio for the second.

Compared with B9, B10 is lower in “mean fluorescence relative to chimeric antibody” value: 2.6 ratio for the first, 2.4 ratio for the second.

Compared with B11, B12 is lower in “mean fluorescence relative to chimeric antibody” value: 2.8 ratio for the first, 2.1 ratio for the second.

For B13, the “mean fluorescence relative to chimeric antibody” value was 2.8 ratio.

molecular target: T2, mouse CD47 (mouse, UniProt Q61735 19-303); experiment: flow cytometry on RBCs, CHO supernatant 10 ng/ml
T2 construct: whole, on cells; also called CD47 on mouse RBCs; CD47 on 4T1 cells
T2 sequence (looked up): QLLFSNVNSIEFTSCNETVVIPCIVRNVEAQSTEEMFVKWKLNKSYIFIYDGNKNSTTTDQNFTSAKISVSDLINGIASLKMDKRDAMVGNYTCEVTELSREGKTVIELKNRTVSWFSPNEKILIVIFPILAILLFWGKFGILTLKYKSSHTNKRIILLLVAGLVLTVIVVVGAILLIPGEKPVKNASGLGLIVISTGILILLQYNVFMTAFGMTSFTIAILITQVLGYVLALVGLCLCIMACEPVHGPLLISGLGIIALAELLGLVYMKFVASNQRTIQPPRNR
Description: as §1

Compared with B1, B2 is higher in “mean fluorescence relative to chimeric antibody” value: 1 ratio for the first, 1.5 ratio for the second.

Compared with B3, B4 is lower in “mean fluorescence relative to chimeric antibody” value: 1.4 ratio for the first, 1 ratio for the second.

First: B5
Second: B6
The “mean fluorescence relative to chimeric antibody” value of the first is higher: 1.5 ratio for the first, 1.2 ratio for the second.

Going from B7 to B8, the “mean fluorescence relative to chimeric antibody” value rises from 0.9 ratio to 1.4 ratio.

First: B9
Second: B10
The “mean fluorescence relative to chimeric antibody” value of the first is lower: 1.2 ratio for the first, 1.3 ratio for the second.

B11 and B12 are the same in “mean fluorescence relative to chimeric antibody” value: 1.2 ratio for the first, 1.2 ratio for the second.

In the case of B13, the “mean fluorescence relative to chimeric antibody” value is reported as 1.2 ratio.

molecular target: T3, pig CD47 (pig, UniProt Q9GKE8 19-303); experiment: flow cytometry on RBCs, CHO supernatant 10 ng/ml
T3 construct: whole, on cells; also called CD47 on porcine RBCs
T3 sequence (looked up): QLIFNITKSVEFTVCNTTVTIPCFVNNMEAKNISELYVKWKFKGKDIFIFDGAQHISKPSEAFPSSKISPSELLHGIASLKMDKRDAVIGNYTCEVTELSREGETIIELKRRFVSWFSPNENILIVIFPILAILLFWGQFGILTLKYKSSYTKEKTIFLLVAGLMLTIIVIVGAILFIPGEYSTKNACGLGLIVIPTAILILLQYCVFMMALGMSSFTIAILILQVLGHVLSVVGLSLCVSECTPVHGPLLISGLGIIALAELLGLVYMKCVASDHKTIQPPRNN
Description: as §1

Compared with B1, B2 is higher in “mean fluorescence relative to chimeric antibody” value: 1 ratio for the first, 1.4 ratio for the second.

First: B3
Second: B4
The “mean fluorescence relative to chimeric antibody” value of the first is higher: 1.7 ratio for the first, 1.3 ratio for the second.

First: B5
Second: B6
The “mean fluorescence relative to chimeric antibody” value of the first is higher: 1.7 ratio for the first, 1.5 ratio for the second.

Going from B7 to B8, the “mean fluorescence relative to chimeric antibody” value rises from 0.9 ratio to 1.6 ratio.

B9 and B10 are the same in “mean fluorescence relative to chimeric antibody” value: 1.2 ratio for the first, 1.2 ratio for the second.

First: B11
Second: B12
The “mean fluorescence relative to chimeric antibody” value of the first is higher: 1.4 ratio for the first, 1.1 ratio for the second.

With B13 the “mean fluorescence relative to chimeric antibody” value was 1.4 ratio.

molecular target: T4, human CD47 (human, UniProt Q08722 19-323); experiment: flow cytometry on RBCs, CHO supernatant 10 ng/ml
T4 construct: whole, on cells; also called CD47 on human RBCs; CD47 on OV10 cells
T4 sequence (Q08722 19-323): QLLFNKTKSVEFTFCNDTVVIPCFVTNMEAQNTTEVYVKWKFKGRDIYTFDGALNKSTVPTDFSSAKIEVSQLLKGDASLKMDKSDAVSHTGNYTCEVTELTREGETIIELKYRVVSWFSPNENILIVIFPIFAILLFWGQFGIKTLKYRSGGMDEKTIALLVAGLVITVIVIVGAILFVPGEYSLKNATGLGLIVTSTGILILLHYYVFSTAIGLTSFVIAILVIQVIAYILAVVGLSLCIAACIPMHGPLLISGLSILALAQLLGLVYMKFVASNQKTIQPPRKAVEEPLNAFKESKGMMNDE
Description: as §1

Going from B1 to B2, the “mean fluorescence relative to chimeric antibody” value rises from 1 ratio to 1.1 ratio.

First: B3
Second: B4
The “mean fluorescence relative to chimeric antibody” value of the first is higher: 1.2 ratio for the first, 0.7 ratio for the second.

Compared with B5, B6 is lower in “mean fluorescence relative to chimeric antibody” value: 1.3 ratio for the first, 1.1 ratio for the second.

First: B7
Second: B8
The “mean fluorescence relative to chimeric antibody” value of the first is lower: 0.7 ratio for the first, 1.2 ratio for the second.

B9 and B10 are the same in “mean fluorescence relative to chimeric antibody” value: 1 ratio for the first, 1 ratio for the second.

First: B11
Second: B12
The “mean fluorescence relative to chimeric antibody” value of the first is higher: 1.1 ratio for the first, 0.9 ratio for the second.

With B13 the “mean fluorescence relative to chimeric antibody” value was 1.2 ratio.

molecular target: T5, dog CD47 (dog, UniProt A0A8I3PM61 19-310); experiment: flow cytometry on RBCs, CHO supernatant 10 ng/ml
T5 construct: also called CD47 on dog RBCs
T5 sequence: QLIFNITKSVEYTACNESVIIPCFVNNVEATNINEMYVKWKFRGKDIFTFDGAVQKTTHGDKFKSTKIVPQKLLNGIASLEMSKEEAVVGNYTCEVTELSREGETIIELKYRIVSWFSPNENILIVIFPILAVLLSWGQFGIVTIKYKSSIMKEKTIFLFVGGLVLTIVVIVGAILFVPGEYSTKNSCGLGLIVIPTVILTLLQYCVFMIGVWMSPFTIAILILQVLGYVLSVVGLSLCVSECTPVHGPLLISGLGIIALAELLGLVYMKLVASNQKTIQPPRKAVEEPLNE
Description: as §1

Going from B1 to B2, the “mean fluorescence relative to chimeric antibody” value rises from 1 ratio to 1.3 ratio.

Compared with B3, B4 is higher in “mean fluorescence relative to chimeric antibody” value: 1.1 ratio for the first, 1.2 ratio for the second.

B5 and B6 are the same in “mean fluorescence relative to chimeric antibody” value: 1.1 ratio for the first, 1.1 ratio for the second.

First: B7
Second: B8
The “mean fluorescence relative to chimeric antibody” value of the first is lower: 0.9 ratio for the first, 1 ratio for the second.

Going from B9 to B10, the “mean fluorescence relative to chimeric antibody” value rises from 1 ratio to 1.1 ratio.

Going from B11 to B12, the “mean fluorescence relative to chimeric antibody” value rises from 1 ratio to 1.1 ratio.

In the case of B13, the “mean fluorescence relative to chimeric antibody” value is reported as 1.1 ratio.
